Consider 72 sequences from the supplement of paper PMC10567573.

± gives the standard deviation.

The data set in a line: protein stability index of a GFP-peptide fusion (GPS, HEK-293T) (PSI 1-6); higher = more stable.
Setting [1] is: treatment: DMSO, c terminus: a fixed tail appended.
The mark [2] stands for this setting: treatment: MLN4924 1 uM, 8 h, c terminus: a fixed tail appended.
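Also: 24-mer peptide tiles fused after GFP, lentivirally expressed, FACS-sorted into six equal bins by GFP/DsRed ratio, decoded by Illumina sequencing, PSI is the read-weighted mean bin number.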

In turn, RVRSLETENRRLESKIREHLEKKG [KRT18] came in with a protein stability index under setting [1] of 4.44 ± 0.26 and a protein stability index under setting [2] of 4.99 ± 0.18.

For the sequence RVWLKRDSGQYWPSVYHAMPSPCS [WDFY2], the protein stability index is, setting by setting: under setting [1], 2.26 ± 0.27; under setting [2], 2.33 ± 0.46.

On to RYGQLIEINSHSLFSKWFSESGKL [TRIP13], for which the protein stability index reads like this: under setting [1], 2.27 ± 0.49; under setting [2], 2.49 ± 0.83.

In turn, RYIHSMSLVHMDIKPSNIFISRTS [WEE1] showed a protein stability index under setting [1] of 1.9 ± 0.47 and a protein stability index under setting [2] of 2.46 ± 0.31.

For RYNDFVVFQEMLLHKFPYRMVPAL [SNX8], the protein stability index by setting is: under setting [1], 2.51 ± 0.41; under setting [2], 2.22 ± 0.27.

With RYNFTPDPDFKDLGALKPLPACEF [NETO1], the protein stability index by setting is: under setting [1], 2.87 ± 0.19; under setting [2], 2.93 ± 0.33.

Turning to SAAPSNDQDGEYCPEVKLKTTGLE [SRPK2], the protein stability index amounted to 5.28 ± 0.28 under setting [1] and 5.26 ± 0.26 under setting [2].

In the case of SAEELRKARSNSTLSKSEYMVIEE [KCNA3], the protein stability index reads like this: under setting [1], 4.87 ± 0.17; under setting [2], 4.93 ± 0.16.

Take SALGPNVTKITLESFLAWKKRKRQ [ZC3H15]: the protein stability index reads like this: under setting [1], 2.92 ± 0.14; under setting [2], 3.14 ± 0.28.

Take SAVADKLDNSRSILKRRYYRQHCT [CTDNEP1]: the protein stability index stood at 3.24 ± 0.33 under setting [1] and 3.7 ± 0.49 under setting [2].

As for SAVTSVRILQDEQYLMASDMAGKI [DCAF4], the protein stability index runs as follows: under setting [1], 3.33 ± 0.18; under setting [2], 3.29 ± 0.27.

Consider SCKLVRDKITGQSLGYGFVNYSDP [ELAVL3], for which the protein stability index by setting is: under setting [1], 2.4 ± 0.19; under setting [2], 2.5 ± 0.37.

For SDEYKIRRERNNIAVRKSRDKAKM [CEBPB], the protein stability index was determined as 4.75 ± 0.27 under setting [1] and 5 ± 0.17 under setting [2].

In turn, SDGVYAIVATLLILDICEDNVPDP [TMEM175] had a protein stability index under setting [1] of 2.86 ± 0.39 and a protein stability index under setting [2] of 2.84 ± 0.51.

Regarding SDGWWRGSYNGQIGWFPSNYVLEE [NCK2], the protein stability index worked out at 2.89 ± 0.35 under setting [1] and 2.73 ± 0.12 under setting [2].

Regarding SDSLLTGMAFFKMREMFFEDHIDD [CNOT7], the protein stability index under setting [1] amounted to 2.58 ± 0.054 and the protein stability index under setting [2] stood at 3.3 ± 0.48.

For the sequence SEEKLALDNNASASGNATQTESGS [C10orf62], the protein stability index stood at 5.55 ± 0.15 under setting [1] and 5.6 ± 0.19 under setting [2].

With SENARLVLQIDNAKLAADDFRTKY [KRT36], the protein stability index runs as follows: under setting [1], 4.03 ± 0.2; under setting [2], 4 ± 0.24.

Consider SESRGSSGRVKRERDREREPEAAS [USP39], for which the protein stability index turned out to be 5.53 ± 0.24 under setting [1] and 5.59 ± 0.19 under setting [2].

In turn, SFQLEISGFLKEMACPYSVLISGD [FAM98B] came in with a protein stability index under setting [1] of 2.56 ± 1.3 and a protein stability index under setting [2] of 2.11 ± 0.74.

SFQLFVEGYKDADYWLRRFEAEPL [PI4K2A]: the protein stability index is, setting by setting: under setting [1], 1.92 ± 0.41; under setting [2], 2.35 ± 0.25.

For the sequence SGACGAFVHGLEDEMYEVRIAAVE [INTS4], the protein stability index came out at 2.71 ± 0.46 under setting [1] and 2.73 ± 0.5 under setting [2].

As to SGAGRRKNATRETTSTLKAWLNEH [IRX6], the protein stability index by setting is: under setting [1], 3.55 ± 0.28; under setting [2], 3.58 ± 0.23.

In the case of SGKVSSSSSSLGNKLQTLSPSHKG [ZC2HC1A], the protein stability index is, setting by setting: under setting [1], 4.31 ± 0.14; under setting [2], 4.26 ± 0.091.

Turning to SGLIYLTNHIAPHARNGLSLKEEH [IKZF1], the protein stability index came out at 2.58 ± 0.37 under setting [1] and 2.71 ± 0.19 under setting [2].

For the sequence SHLSDTGISALVEIPKNCVVAAVG [WDR41], the protein stability index reads like this: under setting [1], 3.09 ± 0.31; under setting [2], 3.22 ± 0.25.

On to SIEVGGSVNFDGETIEGAPPLWAA [FEM1C], for which the protein stability index came out at 3.92 ± 0.28 under setting [1] and 4.12 ± 0.34 under setting [2].

SILRELDTSMDGTEPPQNPVTPLG [SERTAD3]: the protein stability index is, setting by setting: under setting [1], 4.35 ± 0.13; under setting [2], 4.38 ± 0.18.

In turn, SIPLTPGDTPIRKKEELLFDDGDD [FBF1] displayed a protein stability index under setting [1] of 5.51 ± 0.54 and a protein stability index under setting [2] of 5.62 ± 0.17.

In the case of SKAVFLWNMDKYTMIRKLEGHHHD [WSB1], the protein stability index runs as follows: under setting [1], 2.24 ± 0.16; under setting [2], 2.24 ± 0.33.

Sequence SKCLVDDGTGRMPTLKKCEDVARP [GALNT9] yielded a protein stability index under setting [1] of 4.57 ± 0.16 and a protein stability index under setting [2] of 4.54 ± 0.21.

Take SKDLYLISQMDSDQFIPIWTVANM [LARP4]: the protein stability index by setting is: under setting [1], 2.51 ± 0.6; under setting [2], 1.92 ± 0.36.

As to SKDWEEVVVESMEQDRIPEVHVPP [MIA2], the protein stability index reads like this: under setting [1], 5.09 ± 0.25; under setting [2], 4.87 ± 0.26.

For SKEDKDLDSSEGSSQEDEDLGLSE [SPANXN3], the protein stability index reads like this: under setting [1], 5.57 ± 0.33; under setting [2], 5.62 ± 0.28.

For the sequence SKEKDTQNQNITLDCEGTTNKMKS [KMT2E], the protein stability index reads like this: under setting [1], 5.29 ± 0.058; under setting [2], 5.28 ± 0.45.

As to SKGWGRNYASIIRRDCMWSGFSAR [MYCL], the protein stability index reads like this: under setting [1], 2.35 ± 0.39; under setting [2], 2.38 ± 0.31.

Regarding SKQRKDFEGMAFLETEQGKPFVSV [GMCL1], the protein stability index is 3.42 ± 0.14 under setting [1] and 3.27 ± 0.16 under setting [2].

Consider SKSLCHDEIENLLDSDHRELIGDY [CDC25B], for which the protein stability index worked out at 4.13 ± 0.26 under setting [1] and 4.31 ± 0.27 under setting [2].

For the sequence SLCYLQLTRQLVSCSSDGGIAVWN [WDFY1], the protein stability index reads like this: under setting [1], 2.87 ± 0.57; under setting [2], 2.81 ± 0.46.

On to SLFIALITGAYDTIKHPGGAGAEE [MCOLN1], for which the protein stability index is, setting by setting: under setting [1], 2.45 ± 0.58; under setting [2], 2.2 ± 0.44.

Regarding SLGSESEEEEEFYDADEETQMIK [SLC22A15], the protein stability index runs as follows: (treatment: DMSO, c terminus: native) 5.01 ± 0.35; (treatment: MLN4924 1 uM, 8 h, c terminus: native) 4.92 ± 0.37.

Regarding SLGYKEIRKGESRSEALAVDGAGK [CHGA], the protein stability index worked out at 5.03 ± 0.52 under setting [1] and 4.95 ± 0.31 under setting [2].

SLKEAEFYDKQLKVLLSGATFLVT [ZFYVE21] showed a protein stability index under setting [1] of 2.27 ± 0.52 and a protein stability index under setting [2] of 2.55 ± 0.19.

Turning to SLQDASRGDPAHAGLAELGHRLAQ [PBXIP1], the protein stability index amounted to 4.33 ± 0.34 under setting [1] and 4.38 ± 0.27 under setting [2].

Consider SLWERLEFVNGWYILLVTSDVLTI [MCOLN1], for which the protein stability index reads like this: under setting [1], 3.5 ± 0.68; under setting [2], 3.08 ± 0.45.

Consider SMSGGRFRCPTCRHEVIMDRHGVY [TRIM63], for which the protein stability index worked out at 2.24 ± 0.11 under setting [1] and 2.39 ± 0.35 under setting [2].

Regarding SNCISGVCSVRGGEGRSRGSANDY [KRT71], the protein stability index reads like this: under setting [1], 3.93 ± 0.36; under setting [2], 4.23 ± 0.084.

Turning to SNLETIFRIIDSDHSGFISLDEFR [PPEF2], the protein stability index was 2.52 ± 0.24 under setting [1] and 2.73 ± 0.36 under setting [2].

As for SPDLEWHAACLKCAECSQYLDETC [ISL2], the protein stability index amounted to 4.04 ± 0.19 under setting [1] and 4.03 ± 0.39 under setting [2].

Turning to SPHSPDSSQSSLAQEEEEEDQGRT [DDIT3], the protein stability index reads like this: under setting [1], 5.57 ± 0.21; under setting [2], 5.54 ± 0.17.

In turn, SPVSRNRLAQVKRKILVLDLDETL [CTDNEP1] yielded a protein stability index under setting [1] of 2.6 ± 0.35 and a protein stability index under setting [2] of 2.77 ± 0.36.

Regarding SPVTENSTSLSFLDSCNSLTPKST [MYBL2], the protein stability index by setting is: under setting [1], 4.91 ± 0.15; under setting [2], 4.77 ± 0.14.

As to SPYLGQMINLRRLLLSHIHASSYI [PRAME], the protein stability index was determined as 2.7 ± 0.51 under setting [1] and 2.47 ± 0.48 under setting [2].

As for SQAHSTLKLANHQRPVSRQVTCLR [TRAF3IP2], the protein stability index under setting [1] was 3.5 ± 0.21 and the protein stability index under setting [2] worked out at 3.61 ± 0.44.

As to SQDFVGEKLGSGEPSHSVKVHTVP [ATE1], the protein stability index was 4.78 ± 0.17 under setting [1] and 4.83 ± 0.26 under setting [2].

For SQSFSLYVKYQVAIHQDPPDECGK [ATE1], the protein stability index by setting is: under setting [1], 2.75 ± 0.37; under setting [2], 2.5 ± 0.35.

As for SRDGMNIVLNKINQILMEKYLKLQ [INTS3], the protein stability index was 3.05 ± 0.81 under setting [1] and 2.43 ± 0.58 under setting [2].

Take SREWSGKEKWWDGQRDRKAEHWKH [PBXIP1]: the protein stability index runs as follows: under setting [1], 3.69 ± 0.27; under setting [2], 3.91 ± 0.064.

For the sequence SRLPAKCPGKGAWSIPWKWLFGAT [FKBP8], the protein stability index is 1.99 ± 0.22 under setting [1] and 2.05 ± 0.28 under setting [2].

In the case of SRVKCDQYWPSRGTETHGLVQVTL [PTPRD], the protein stability index was 2.42 ± 0.39 under setting [1] and 2.05 ± 0.4 under setting [2].

For SSCNGPGQTTGHPYYLRSFLVVLK [FAN1], the protein stability index runs as follows: under setting [1], 2.21 ± 0.47; under setting [2], 2.51 ± 0.47.

Regarding SSKSSGDLVDLFDGTSQSTGGSAD [CLINT1], the protein stability index is, setting by setting: under setting [1], 5.41 ± 0.22; under setting [2], 5.55 ± 0.21.

As for SSLLAPAKHLIASMLSKNPEDRPS [PLK2], the protein stability index by setting is: under setting [1], 3.2 ± 0.38; under setting [2], 3.37 ± 0.18.

Consider SSTSGGSGYGFRPSMVSGGYVANS [KRT71], for which the protein stability index is, setting by setting: under setting [1], 3.29 ± 0.31; under setting [2], 3.46 ± 0.49.

For the sequence STKTPAPCSEFMEPSSDPSLLGEP [SPAG8], the protein stability index under setting [1] worked out at 5.24 ± 0.44 and the protein stability index under setting [2] amounted to 5.25 ± 0.081.

Consider STPLMEAAQEGHLELVKYLLAAGA [ANKRD17], for which the protein stability index was found to be 2.22 ± 0.15 under setting [1] and 2.48 ± 0.65 under setting [2].

Turning to SVKLRALRSPRKFGVAGRSCQEVL [DFFB], the protein stability index is, setting by setting: under setting [1], 2.73 ± 0.34; under setting [2], 3.01 ± 0.54.

SVSRPEGRSWPSAPDDSKAQAHRI [PDLIM4]: the protein stability index reads like this: under setting [1], 4.76 ± 0.21; under setting [2], 4.95 ± 0.18.

Turning to SWDTESSGSDSGGSSSSSSSSINS [FAM104A], the protein stability index under setting [1] came to 5.25 ± 0.22 and the protein stability index under setting [2] was 5.1 ± 0.26.

SYATEADIISTVEFNHTGELLATG [PPP2R2B]: the protein stability index came to 3.9 ± 0.43 under setting [1] and 3.94 ± 0.32 under setting [2].

With SYKARLPLRLFLIIANTMAFQNDV [SCD], the protein stability index under setting [1] was determined as 2.66 ± 0.53 and the protein stability index under setting [2] turned out to be 2.5 ± 0.2.

As for SYLHAKKYLKPSGNMFPTIGDVHL [CARM1], the protein stability index runs as follows: under setting [1], 2.35 ± 0.39; under setting [2], 2.64 ± 0.52.
